Source: the nanobody polyreactivity screen of Harvey et al. (2022)

Experiment: yeast display, Sf9 membrane polyspecificity reagent, FACS + sequencing; frameworks hold sequencing errors
In short: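 Synthetic nanobody libraries on Saccharomyces cerevisiae BJ5465 were galactose-induced for 36–48 hours, stained 1 hour at 4 °C with 10% biotinylated, detergent-solubilized Sf9 membrane reagent and enriched on streptavidin microbeads. FACS then separated cells into low and high (top ~1%) gates by anti-HA (expression) and streptavidin (reagent binding) fluorescence. Genes were colony-PCR amplified, MiSeq 2 × 250 sequenced and CDR-length filtered. A clone's polyreactivity label is that of its gate of origin.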

Row | Sequence | polyreactivity (PSR sort gate)
1 | QVQLVESGGGLVQAGGSLRLSCAASGSIFSWYAMGWYRQAPGKERELVAAITWTGGSTYYADSVKGRFTISRDNAKNTVYLQMLSLKPEDTAVYYCAARRVVYRYYWYSAYDYWGQGTQVTVSS | high polyreactivity
2 | QVQLVESGGGLVQAGGSLRLSCAASGSIFSWYAMGWYRQAPGKEWELVAAITWSGGSTYYADSVKGRFTISRDNAKKTVYLQMNSLKPEDTAVYYCAASYDIYGNYRRYDYWGQGTQVTVSS | high polyreactivity
3 | QVQLVESGGGLVQAGGSLRLSCAASGSIFSWYTMGWYRQAPGKERELVAAISRRGGSTYYADSVKGRFTISRDNAKNTVFLQMNSLKPEDNAVYYCAAAHPATRYDYWGQGTQVTVSS | high polyreactivity
4 | QVQLVESGGGLVQAGGSLRLSCAASGSIFSWYTMGWYRQAPGKERELVARITTSGGTSTYYADSVKGRFTISRDNAKNTVYLQMNSLKPEDTAVYYCAADSPTSLYEYWGQGTQVTVSS | high polyreactivity
5 | QVQLVESGGGLVQAGGSLRLSCAASGSIFSYNGKGWYRQAPGKERELVATISASSVTTYYADSVKGRFTISRDNAKNTVYLQMNSLKPEDTAVYYCARDAYSVYYYVFLHWEYDYWGQGTQVTVSS | high polyreactivity
6 | QVQLVESGGGLVQAGGSLRLSCAASGSIFSYYAMGWSRQAPGKERELVAAIRRGGSTNYADSVKGRFTISRDNAKNTVYLQMNSLKPEDTAVYYCAASLGWRPSFSYYWGQGTQVTVSS | high polyreactivity
7 | QVQLVESGGGLVQAGGSLRLSCAASGSIFSYYAMGWYRPAPGKERELVAAISKRGPSTYYADSVKGRFTISRDNAKNSVYLLMNSLKPEDTAVYYCAAKYSRRSSVSYYYWGQGTQVTVSS | high polyreactivity
8 | QVQLVESGGGLVQAGGSLRLSCAASGSIFSYYAMGWYRQAPGKEREFVAAITKSGGSTYYADSVKGRFTISRDNAKNTVYLQMNSLKPEDTAVYYCAADEGGFWWTYPYDSWGQGTQVTVSS | low polyreactivity
9 | QVQLVESGGGLVQAGGSLRLSCAASGSIFSYYAMGWYRQAPGKEREFVAAITKSGGSTYYADSVKGRFTISRDNAKNTVYLQMNSLKPEDTAVYYCAVRYKLYYYGYDYWGQGTQVTVSS | low polyreactivity
10 | QVQLVESGGGLVQAGGSLRLSCAASGSIFSYYAMGWYRQAPGKERELVAAISYSGSDTYYADSVKGRFTISRDNAKNTVYLQMNSLKPEDTAVYYCAAEDPSYSYDYWGQGTQVTVSS | low polyreactivity
11 | QVQLVESGGGLVQAGGSLRLSCAASGSIFSYYAMGWYRQAPGKERELVAAITRGGTTYYADSVKGRFTISRDNAKNTVYLQRNSLKPEDTAVYYCAASDYYGEYEYWGQGTQVTVSS | high polyreactivity
12 | QVQLVESGGGLVQAGGSLRLSCAASGSIFSYYAMGWYRQAPGKERELVAGITWSGGRTYYADSVKGRFTISRDHAQNTVYLQMNSLKPEDTAVYYCAAVQWFSRRSRYDYWGQGTQVTVSS | high polyreactivity
13 | QVQLVESGGGLVQAGGSLRLSCAASGSIFSYYAMGWYRQAPGKERELVATISSVGSTNYADSVKGRFTISRDNPKNTVYLQMNSLKPEDTAVYYCAATIGHNGFDYWGQGTQVTVSS | low polyreactivity
14 | QVQLVESGGGLVQAGGSLRLSCAASGSIFSYYAMGWYRQAPGKERELVATISWSGGSTYYADSVKGRFTISRDNAKNTVYLQMNSLKPEDTAVYYCAARKYGQRYRRDYWGQGTQVTVSS | low polyreactivity
15 | QVQLVESGGGLVQAGGSLRLSCAASGSIFSYYAMGWYRQAPGKERELVSANTSGDGTNYADSVKGRFTISRDNAKNTVYLQMNILKPDDTAVYYCAADAVDSYWREDYWGQGTQVTVSS | low polyreactivity
16 | QVQLVESGGGLVQAGGSLRLSCAASGSIFSYYDMGWYRQAPGKERELVASISSGGSTYYADSVKGRFTISRDNAKNTVYLQMNSLKPEDTAVYYFGAVSRWLYWEDVYWGQGTQVTVSS | low polyreactivity
